The values below come from the supplement of paper PMC12042874.

± gives the uncertainty stated by the source.

The data set in a line: amyloid nucleation score (Sup35N fusion, yeast selection) (log enrichment); library NNK2; higher = more nucleation; inactive = no reads after selection. The method, boiled down: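 Peptides of 20 random codons fused to Sup35N were expressed in psi-negative yeast, induced 24 hours with 100 μM copper sulfate, then grown 7 days at 30°C on medium lacking adenine and uracil. Input and output plasmid inserts were Illumina-sequenced. Nucleation score is the DiMSum log enrichment of output over input reads, centred on the mode score of non-aggregating sequences, excluding sequences with under 100 input reads. Random libraries had three technical output replicates.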
Regarding NEVTRAWSEFPYFMVSRHMT, the amyloid nucleation score was found to be 0.813 ± 0.47.

As to GHAIWSSIVFVGWNLRGDS, the amyloid nucleation score came to 0.065 ± 0.46. For the substance NLNMVTWVRQTHI, the amyloid nucleation score is -0.726 ± 0.32. As for LLLFVILCNSNWLCWPR, the amyloid nucleation score entry is “inactive”. As for LAWGNHRVLRWSAPHNIRSR, the amyloid nucleation score came out at 0.93 ± 0.33.

Take IVSKDRQNFVRCKDSRDHDV: the amyloid nucleation score is -0.002 ± 0.39. To SGTSLRVTSNRRFDMYGVYG belongs -0.766 ± 0.5; to ERTVKETFSTGNSYEGTGRR, -0.468 ± 0.53; to SHHLRKSFCPC, -0.279 ± 0.5. In the case of VNVPYIRMIDHLLTYTQL, the amyloid nucleation score is -0.081 ± 1.1. For the substance IDFQVVWSIFLENSKKHSTR, the amyloid nucleation score came to 0.213 ± 0.8. As for FQSHWVLERGI, the amyloid nucleation score is -0.901 ± 1. Under CGDQSVFERYETRRNLGL stands 0.21 ± 0.63; under VHYQLKSIRMDSM, 0.484 ± 0.19; under FVVWWFLKEMRDSAGKGDEF, -0.49 ± 0.34. The substance AGVWHSSLFITIQGVLNFGY had an amyloid nucleation score of 6.017 ± 0.02. In turn, RSYDQVRSCHARMREDSNVQ returned an amyloid nucleation score of 4.61 ± 0.066.

Substance TSVVFWWGKGGKVGEPNEAG returned an amyloid nucleation score of 0.147 ± 1.1. KVFVAYGMAVMLFYICHSK gave an amyloid nucleation score of 4.561 ± 0.037. Regarding ARMIVCPTVFAIPWYNNSFI, the amyloid nucleation score was -1.47 ± 0.78. For the substance NVRFY, the amyloid nucleation score result was “inactive”. To ISTFSRVHLSKVYLRDSTIV belongs -1.92 ± 1.1; to GISAHHALVTLMLMAIVGHY, 1.55 ± 0.55; to LGFSGNI, “inactive”. QIPCCWGPYVWSRAMGCSLE had an amyloid nucleation score of 1.78 ± 0.15. TNFFLNKRAGYNWLLVFEVI: the amyloid nucleation score is -0.886 ± 0.48. VGLGVRVEVLTMSFTILQSV: the amyloid nucleation score worked out at 3.36 ± 0.078.

In the case of GYSFRYTFCSHSGDVAVVSK, the amyloid nucleation score was -0.739 ± 1. In the case of VDIGENLEFCIVLSQ, the amyloid nucleation score is -0.19 ± 0.55. As to SLMLGVYHLFTCGTQTRCYS, the amyloid nucleation score was -0.71 ± 1.

As to FMHNHGPGLDTYAYGTR, the amyloid nucleation score was -1.13 ± 0.64. Take MRSNWYGNVCVVTSNCDGLG: the amyloid nucleation score came to 0.837 ± 0.48. Turning to FGGRFIQSRVSMR, the amyloid nucleation score result was “inactive”. On to RFPCRLLRASLFP, for which the amyloid nucleation score was -0.636 ± 0.45. For VNAVSKGTCLLIWFRDFVAY, the amyloid nucleation score is -0.113 ± 1.1. On to GLLEVIF, for which the amyloid nucleation score is 0.119 ± 0.74. On to TSIIVTMLDPYWVISNSCAH, for which the amyloid nucleation score is 5.701 ± 0.038. The substance APADH gave an amyloid nucleation score of 2.52 ± 0.15. Regarding CIRVGSQNVMFPIDSEPSDL, the amyloid nucleation score stood at 0.482 ± 0.46. On to LLFSLYDYRQIDFNSGHRHV, for which the amyloid nucleation score is 4.37 ± 0.056. Under MTCRMCGADCPLA stands 0.539 ± 0.66. In the case of HKCRWSGPAVGSQGKDVIIL, the amyloid nucleation score amounted to 1.12 ± 0.44. Regarding RIRVIIVPALVLA, the amyloid nucleation score result is “inactive”. To YVVTYLRRRTLLAGSCISNY belongs 0.164 ± 0.8. On to VKWISMCSILSYRRG, for which the amyloid nucleation score was -1.08 ± 0.78. Substance CLTTGNLWEVTAGIESVRWI had an amyloid nucleation score of 0.202 ± 0.5. RSSASRNQFKESCFRAHQFP: the amyloid nucleation score is -0.339 ± 0.27. Under SSLWTCGFIELRPRVLSMGS stands 0.327 ± 0.57; under IIGFLFMDFLLSCRFQFCT, -1.32 ± 0.45; under SFKGDDVVYC, -0.052 ± 0.27. Substance WPFRESVY had an amyloid nucleation score of 0.41 ± 0.5. In the case of IDNLFWPRLSGPDFVI, the amyloid nucleation score was -1.7 ± 1.1. For YYQGRPWSSVLSFYCFHSYS, the amyloid nucleation score result is “inactive”. Consider NDGVWKLFPLYLTPRSTFLL, for which the amyloid nucleation score stood at 0.895 ± 0.81.

The substance LIRVILDGGKGKAGNTWVLQ yielded an amyloid nucleation score of 5.17 ± 0.098. To QTNCETCVFNNTFELMLHQS belongs 4.37 ± 0.087. With IIRITESASRCNTDQLFLLW, the amyloid nucleation score entry was “inactive”. In the case of LILLNFTADSRGRRMLCCAW, the amyloid nucleation score was -0.584 ± 0.76. In the case of LEVTIMTRFVLMLMTLCFPS, the amyloid nucleation score is -0.066 ± 0.36.

With LTVMSFTNNLHYLF, the amyloid nucleation score is -0.552 ± 0.48. Under IRWAFWSRYGSWAKLSLRIV stands -0.995 ± 0.56.

For the substance GKFQMS, the amyloid nucleation score is -0.244 ± 0.56. As for HLYLPMYGIMFS, the amyloid nucleation score worked out at 1.27 ± 0.15.

The substance HVYAVRSLLYGGWGRH gave an amyloid nucleation score of 4.46 ± 0.051.

As for ALSSKMMGYDRF, the amyloid nucleation score is -0.494 ± 0.64. Consider ACNLRAVYFT, for which the amyloid nucleation score was -1.47 ± 0.39. For TVMLFVSLQRCH, the amyloid nucleation score entry was “inactive”. To FPNDKLCNFFFDNNQSLARK belongs -1.31 ± 1; to SCCISPVSVIMRPSY, 3.79 ± 0.1.

In the case of LITRVSSYCCWCLGFTIWAL, the amyloid nucleation score was -0.77 ± 1.

As for SACWEGGSSFVIKGKTRLFG, the amyloid nucleation score was 1.94 ± 0.19. As to IFLIK, the amyloid nucleation score is -0.249 ± 1.1.

As to YVYKCLQSQFFNALVTMISL, the amyloid nucleation score entry is “inactive”. Under SHFSYKECRSAVRMLQYNGA stands 0.719 ± 0.52. Under FCTKSTGNMCFTIMKLRG stands 0.097 ± 0.79. The substance LNIYF registered an amyloid nucleation score of 3.13 ± 0.11. With GQNLDRSVKGWCTASHTGSF, the amyloid nucleation score is 0.554 ± 0.54.

FWDSIKIHSKSLLSCIDGPW had an amyloid nucleation score of 2.35 ± 0.066. To FYHLLLTFGKIVVVQAAWSM belongs 0.981 ± 0.51; to NIDSWVKGFVKY, -0.558 ± 1.

For the substance TDISQEGPVNIL, the amyloid nucleation score result was “inactive”.

Regarding GLRFVYLIYTGRS, the amyloid nucleation score was -0.497 ± 0.64. Take DFWTARFGIGCCGVPCDRFF: the amyloid nucleation score was -0.507 ± 0.79. To KCLWWFWLQDRKKRVMCLTG belongs 0.771 ± 0.43; to SVWVCPPLFGQMCAGVTNNR, -0.014 ± 0.41.

Turning to SNCRTSFIQMVVYDCFGSFF, the amyloid nucleation score came to 4.74 ± 0.09. For PVNWGQGITTKALWYMTLRF, the amyloid nucleation score was -0.417 ± 1.1. Consider TPHGIYEHLPQEY, for which the amyloid nucleation score was -0.273 ± 0.49. Under SMGFSRHRFKG stands 0.164 ± 0.8; under TTDCG, -0.712 ± 0.33; under WKLAHISLDFHFLYSR, -0.269 ± 0.61. Substance GGTGVAV showed an amyloid nucleation score of 0.183 ± 0.34. For the substance PTPYKGRLLFPHHSGLYLIG, the amyloid nucleation score was -1.23 ± 1.1. Under TIIRRDSLESQRRHCPMVVV stands 0.351 ± 0.64; under LRIVICT, -1.63 ± 0.62; under VLDINIFMISYCFHMHYDQV, 5.49 ± 0.091. RGKDEDMLKSECHYVL: the amyloid nucleation score is -0.883 ± 0.76.

For the substance VECIRSVLVFFVFWLRSIFA, the amyloid nucleation score was -1.38 ± 0.55. To TSPSKLFRDLFYHPRSKPVA belongs 0.708 ± 0.41; to GSPNLVSV, 0.401 ± 0.56. Under GCFPSLWWLLPGCFACYSLR stands 0.721 ± 0.8; under VGLISERLVSMSTVA, 0.4 ± 0.56; under YIAIEYLFSFRGFRGTGVMG, 0.034 ± 0.63. Consider VVDCMCSGLHWVQVGILSQP, for which the amyloid nucleation score amounted to 1.19 ± 0.39. As to AQLVGVCFRRFCQLSTSLCY, the amyloid nucleation score is -1.18 ± 0.64. As to GIWITGAWTTSLLCIRTLLG, the amyloid nucleation score was 0.631 ± 0.43. As to LSLNG, the amyloid nucleation score is -0.955 ± 0.39. LSVAFRVW: the amyloid nucleation score was -0.55 ± 0.49. As for KAREWQVLVRCKKLTMKYSK, the amyloid nucleation score is 8.227 ± 0.046.

With SRHGMSLASR, the amyloid nucleation score is -0.024 ± 0.46. Turning to RSSVWGMRELIERKNTSGAW, the amyloid nucleation score is 1.49 ± 0.19. Substance VICEIMYNKMCDTSLRSSLS showed an amyloid nucleation score of 0.329 ± 0.65. Under ILRLIL stands 0.531 ± 0.51; under LKGYSQVMRSSIGLWCFRKD, -0.547 ± 0.49; under TNDYSFWVLSHTANQPSLME, “inactive”. As to DTLWEGSLLNVYFVDVIRST, the amyloid nucleation score came to 0.06 ± 0.55. Under KQENMPDSAVVYCRRWGSDM stands 0.057 ± 0.76. As for GAYYSQ, the amyloid nucleation score was -0.316 ± 0.46. FLACRSLGKPRMFDRSLRYV showed an amyloid nucleation score of 0.185 ± 0.44. With IFSRIDTQCGMMSISQQ, the amyloid nucleation score was -0.364 ± 0.24.

As for LIYWCHAFVKT, the amyloid nucleation score is -1.27 ± 0.53. As for SMYLKKGRSVRGGMG, the amyloid nucleation score was -0.66 ± 0.44. Regarding TSWVYDEYVVCLPSWASYVL, the amyloid nucleation score is -0.509 ± 1.1. CSIPFSVWDCLSWYCKNIRI: the amyloid nucleation score was -1.46 ± 0.62. The substance TSCFLLIQGIFGGLGITGMP registered an amyloid nucleation score of 2.97 ± 0.099. To WFVGFSMAYWNERDAGRPGM belongs 1.8 ± 0.15; to ELVLF, -0.454 ± 0.42; to TVCSIMASFQYRDSRRQRSG, 4.02 ± 0.078. In the case of LCTRHACNIYGPLPNAHLVR, the amyloid nucleation score was 0.643 ± 0.31.

Take ISDHTTNKDQRFSYS: the amyloid nucleation score was -0.455 ± 1.1. As for NWCYTTSGHHRVTFGLQRLP, the amyloid nucleation score came to 4.8 ± 0.052. To HNYSD belongs 0.187 ± 0.56; to WSDGLSPVKLVRLS, 3.91 ± 0.094; to MHSFLFLVIAM, “inactive”.

Regarding NFYSYIWLLL, the amyloid nucleation score was found to be 6.38 ± 0.064. Under QRIPWV stands -0.509 ± 1.1; under RIWMLY, 0.42 ± 0.66. To SLVNATGRWINVVTNFRLNG belongs 7.565 ± 0.049; to SGVPYVNNMEASELSWGKIP, “inactive”; to SLCQSLDSWCYFLLWHWQWY, -0.637 ± 1.1. As for LSQGLIKRMYQHMCMKCVGF, the amyloid nucleation score was -0.08 ± 0.35.
